This assay has as its target VMRFL (VEGFR2-c-MPL chimeric receptor, D1-7 linked to the c-MPL TM) (human). In words: cell-based or functional assay.

“recombinant human VEGF-A165 (from UniProt P15692 27-191) (ligand)” had an EC50 of % pSTAT5+ cells (VEGF dose-dependent STAT5 phosphorylation in VMRFL+ T cells) of 106 pg/ml and an EC50 of pSTAT5 MFI (VEGF dose-dependent STAT5 phosphorylation in VMRFL+ T cells) of 144 pg/mL.

For the origin of these results see patent US20250262274A1.
